Experimental data published in publication PMC10374912 (Nature Communications, 2023).

Target: T1, Rtg3-6XHis (recombinant, co-expressed with Rtg1) (C. albicans, UniProt A0A1D8PF20 1-520)
T1 construct: Rtg3, basic helix-loop-helix transcription factor of Candida albicans; also called tagged Rtg3; Rtg3X6his; source: E. coli BL21(DE3), co-expressed with Rtg1 from pColaDuet (pLC1452), purified (Ni-NTA, heparin, SEC)
T1 sequence (looked up): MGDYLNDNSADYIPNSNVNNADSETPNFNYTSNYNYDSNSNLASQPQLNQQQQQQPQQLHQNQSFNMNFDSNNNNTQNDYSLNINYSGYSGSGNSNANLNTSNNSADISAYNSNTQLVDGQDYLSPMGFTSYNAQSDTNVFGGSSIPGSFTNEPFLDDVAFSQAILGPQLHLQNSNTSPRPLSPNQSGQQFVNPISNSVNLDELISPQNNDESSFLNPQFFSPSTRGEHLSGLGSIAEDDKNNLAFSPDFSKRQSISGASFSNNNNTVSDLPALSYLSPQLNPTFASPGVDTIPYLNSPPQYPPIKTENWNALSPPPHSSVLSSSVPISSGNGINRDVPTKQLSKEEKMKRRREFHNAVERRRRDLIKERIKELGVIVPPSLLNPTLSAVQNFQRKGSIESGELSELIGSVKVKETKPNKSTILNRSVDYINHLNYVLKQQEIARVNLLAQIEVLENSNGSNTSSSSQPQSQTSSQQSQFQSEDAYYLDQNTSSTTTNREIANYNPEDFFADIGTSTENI
Assay: SEC; Rtg1 and Rtg3-6XHis co-expressed in E. coli, co-purified by Ni-NTA and heparin, then HiLoad 16/600 Superdex 200 pg; 25 mM HEPES-NaOH pH 7.8, 300 mM NaCl, 5% glycerol; ambient temperature; fractions on SDS-PAGE, Coomassie
Conditions: both partners purified

B1: Rtg1 (recombinant, co-expressed with Rtg3-6XHis) (natural protein, C. albicans, UniProt Q5APP3 1-274, looked up)
chain: MSQFGEFYDTYSVENNQQYDTDLNNSTNTPIVQSKQRNDNIIPSINIKQEDFDSVLSGSLDVKKQLSSSLNTAGVGIGSSYGNGGISKPQSRRNSTYIKSHEGSDNEDEDDQNDKDVGNERKRRDNINDKIQELLTLIPSEFFQSNTDNNTKTGTKVVKENSPEDDAVKNSGTKDGKPNKGQILTKSVEYLQYLQNLIDENNRKEVELIMRLKTLELKAANRPSENIPIRIGYTSAEKALGEIGVGPCSEEYFKNVLIKSASTSKSGRRGSTSG
notes: Rtg1, basic helix-loop-helix transcription factor of Candida albicans; untagged; source: E. coli BL21(DE3), co-expressed with Rtg3-6XHis from pColaDuet (pLC1452), purified (Ni-NTA, heparin, SEC)
- stoichiometry N: ~1
